Data reported in the nanobody polyreactivity screen of Harvey et al. (2022).

Assay: yeast display, Sf9 membrane polyspecificity reagent, FACS + sequencing; frameworks hold sequencing errors
Procedure, shortened: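 A nanobody's polyreactivity label depends on the gate it was sorted from. Yeast display cells were stained with 10% biotinylated, detergent-solubilized Sf9 membrane reagent for 1 hour at 4 °C, enriched on streptavidin microbeads and sorted by FACS. The low and high (top ~1%) gates were set on anti-HA fluorescence for expression and streptavidin fluorescence for reagent binding.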

Q: Which “polyreactivity (PSR sort gate)” value does the source give for “QVQLVESGGVLVQAGGSLRLSCAASGSIFDKAMGWSRQAPGKERELVSAITSGGITNYADSVKGRFTISRDNAKNTVYLQMNRLKPEDCAVYYCNTLSPTQTKYDYWGQGTQVSVSS” here?
A: low polyreactivity

Q: Which “polyreactivity (PSR sort gate)” value does the source give for “QVQLVESGGVLVQAGGSLRLSCAASGSIFFYYAMGWYRQAPGKERELVAAITFTGGSTYYADSVKGRFTISRDNAKNTVYLQMKSLKPEDTAVYYCAADWYYGDEYEYWGQGTQVTVSS” here?
A: high polyreactivity

Q: Which “polyreactivity (PSR sort gate)” value does the source give for “QVQLVESGGVLVQAGGSLRLSCAASGSIFNYYAMGWYRQAPGKERELVAGITTSGGSTYYADSVKARFTISRDNEKNSVYLQMNSLTPEDTAVYYCAAYDYISSTYFLDDYWGQGTQVTVSS” here?
A: low polyreactivity

Q: Which “polyreactivity (PSR sort gate)” value does the source give for “QVQLVESGGVLVQAGGSLRLSCAASGSIFSAYVMGWYRQAPGKERELVAAINRGGNTYYADSVKGRFTISRDNAKNTVYLQMNSLKPEDTAVYYCNAQWYYLRYRYDYWGQGTQVTVSS” here?
A: high polyreactivity

Q: With “QVQLVESGGVLVQAGGSLRLSCAASGSTFVTNAMGWYRQAPGKEREFVAAISNSSGSTYYADSVKGRFTISRDNAKNTVYLQMNSLKPEDTAVYYCNATPDDWLQEDYWGQGTQVTVSS” as the sequence, how does the “polyreactivity (PSR sort gate)” value read?
A: low polyreactivity

Q: For “QVQLVESGGVLVQAGGSLRLSCAASGSTFVYNAMGWYRQAPGKERELVARISWSVTDTYYADSVKGRFTISRDNAKNTVYLQMNSLKPEDTAVYYCNTDVTYSHLVFGYDYWGQGTQVTVSS”, which “polyreactivity (PSR sort gate)” value is on record?
A: low polyreactivity

Q: Which “polyreactivity (PSR sort gate)” value does the source give for “QVQLVESGGVLVQAGGSLRLSCAASGSTFWLYAMGWNRQAPRKERELVAAITRSGGRTNYADSVKGRFTISRDNAKNTVYLQMNSLKPEDTAVYYCAAEYLGVSYNNWAYDFWGQGTQVTVSS” here?
A: low polyreactivity

Q: With “QVQLVESGGVLVQAGGSLRLSCAASGSTFYGYAMGWYRQAPAKERELVAAITRSGGSTYYADSVKGRFTISRDNAKNTVYLQMNSLKPEDTAVYYCARQDRDTYYHRYYYGGQGTQVTVSS” as the sequence, how does the “polyreactivity (PSR sort gate)” value read?
A: high polyreactivity

Q: With “QVQLVESGGVLVQAGGSLRLSCAASGSTSDCYDMGWYRQAPGKEWELVAAISTGDGITYYADSVKGRFTISRDNAKNTVYLHMNRLKPEDTAVYYCAAEVELSGGSDYWGQGTQVTVSS” as the sequence, how does the “polyreactivity (PSR sort gate)” value read?
A: low polyreactivity

Q: For “QVQLVESGGVLVQAGGSLRLSCASSGSIFYIYGMGWSRQAPWKERELVARISSGDRTNYADSVKGRFTISRDNAKNRVYLQMNSRNPDDTAVYYCAAKKRKIAGVGGDYWGQGTQVTVSS”, which “polyreactivity (PSR sort gate)” value is on record?
A: high polyreactivity

Q: Which “polyreactivity (PSR sort gate)” value does the source give for “QVQLVESGGWLDQAGGSLRLSCAASGRTLGYYAMGWYRQAPGKERELVASIRYSGGSTYADSVKGRFTISRDNAKNTVYLQMNSLKPEDTAVYYCATGDSFRCYSALSRYDYWGQGTQVTVSS” here?
A: high polyreactivity

Q: With “QVQLVESGGWLVQAGGSLRLSCDASGITFYRNAVGWYRPAPGKERELVADITVSGGSTYYADSVKGRFTISRDNAKNTVYLQMNSLKPEDTAVYYCNAGLYQYDVWAYYIRYDYWGQGTQVTVSS” as the sequence, how does the “polyreactivity (PSR sort gate)” value read?
A: low polyreactivity

Q: With “QVQLVESGLCLVQAGGSLRLSCAASGRIFRSYLMGWYRPAPGKERELVAAISNSGTRTYYADSVKGRFTISRDNAKNTVYLQKNSLKPEDTAVYYFITRRGRGSVDYDYWGQGSQVTVSS” as the sequence, how does the “polyreactivity (PSR sort gate)” value read?
A: high polyreactivity

Q: With “QVQLVESGLGLVQAGGSLRLSCAASGSTFSNNAMGWYRQAPGKERELVASITRSGGSTYYADTVKGRFTISRDNAKNTVYLQMNSLKPEDTAVYYCNADGYYDYDYGEWGQGTQVTGSS” as the sequence, how does the “polyreactivity (PSR sort gate)” value read?
A: low polyreactivity

Q: With “QVQLVESGLGLVQAGGSLRLSCAHSGSTLVYNDMRWYRQAPGKEREFVAAIRSNDGSTYYADSVNGRFTISRDNAKNTVYLQMNSLTPEDTAVYYCAATFSSAFAYYYWGQGTQVTVSS” as the sequence, how does the “polyreactivity (PSR sort gate)” value read?
A: low polyreactivity

Q: For “QVQLVESGLGLVQAGGSLSLSCAASGIIFSWNSMGWYIEAPGKERELVAAITRGGGGTTYYADYVKGRFTISRDKAKNTVYLQMNSLKPEDTAVYYCAKAYEVRFEVDYCGQGTQVTVSS”, which “polyreactivity (PSR sort gate)” value is on record?
A: low polyreactivity

Q: For “QVQLVESGRGLDQAGGSLRLNCAASGSIFVRYAMGLNRQAPGKERELVAGITNSGGSTYYADSVKGRFTISRDNAMNTVYLQMNSLKPEDTAVYYCAADAGGWWYKYYYWGQGTQVTVSS”, which “polyreactivity (PSR sort gate)” value is on record?
A: high polyreactivity

Q: With “QVQLVESGRGLFKAGGSLRLSCAASGSIFDGNAMGWYRQAPGKERELVATMSWCGGSTYYADSVKGRFTISRDNSKNNVYLQMYSVNPEETAVYHCGKTPYRRYRYGGYTYSTYDYWGQGTQVTVSS” as the sequence, how does the “polyreactivity (PSR sort gate)” value read?
A: low polyreactivity

Q: With “QVQLVESGRGLFQAGGSLRLSCAASGSTFYTNAMVWYRQAPGKEWELVATITSSGGITSYADSVKGRFTISRDNAKITVYLHMNSLKPEDTAVYYCAADFGASYDTHEYGYWGQGTQVTVSS” as the sequence, how does the “polyreactivity (PSR sort gate)” value read?
A: low polyreactivity

Q: With “QVQLVESGRGLLQAGGSLRLSCAASGRIFTRYAMGWYRQAPGKERELVAAISSGGGNTYYADSVKGRFTISRYNAKNTVYLQMNILKPEDTAVYYCAALRSWRKTGGAQRYWYDYWGQGTQVTVLS” as the sequence, how does the “polyreactivity (PSR sort gate)” value read?
A: high polyreactivity

Q: With “QVQLVESGRGLVLAGGSLRLSCAASGFIFLEYAMGWYRQAPGKERELVAASSSRGTRTYYADSVKGRFTISRDNAKNTGYLQMNSLKPEDTAVYYCAARSIAPTNLKTYLLDMDYWGQGTQVTVSS” as the sequence, how does the “polyreactivity (PSR sort gate)” value read?
A: high polyreactivity

Q: For “QVQLVESGRGLVQAGGRLRLSCAASGFTFNRYTMGGYRQAPGKEREFVASITRSGGSTYYADSVKGRFTISRDNAKNTVYLQMNSLTPEDTAVYYCAPVYQYSSRYDHWGQGTQVTVSS”, which “polyreactivity (PSR sort gate)” value is on record?
A: high polyreactivity

Q: For “QVQLVESGRGLVQAGGSHRLSCAASGSTITYYTMGWYREAPGKERELVAAISGSGGRTYYADSVKGRFTISRDNAKNTVYLQMNSLKPEDTAVYYCAAVYQLSRYDYWGQGTQVTVSS”, which “polyreactivity (PSR sort gate)” value is on record?
A: high polyreactivity

Q: Which “polyreactivity (PSR sort gate)” value does the source give for “QVQLVESGRGLVQAGGSLRISCAASGRIFKNYAMGWYRQAPGKERELVADITWSDSDTSYADSVKGRFTITRDNAKNTVYLQMNCLKPEDTAVYYCAAETFDYADYIANGSAEYDYWGQGSQVTVSS” here?
A: high polyreactivity

Q: For “QVQLVESGRGLVQAGGSLRLSCAACGSIFVYNDRGCYRQAPGKERELVAAISASGGRTYSADSVKGRFTISRDNAKNTVYLQMNSLKPEDTAVYYCAKDWLWGPEYDYWGQGTQVTVSS”, which “polyreactivity (PSR sort gate)” value is on record?
A: low polyreactivity

Q: For “QVQLVESGRGLVQAGGSLRLSCAASGFIFLKFAKGWYRQAPGKERELVARITSTGGSTYYADSVKGRFTISRDNAKNTVYLQMNSLKPEDTAVYYCARDTVPSSDPWYYAWGGFEFDYWGQGTQVTVSS”, which “polyreactivity (PSR sort gate)” value is on record?
A: low polyreactivity

Q: Which “polyreactivity (PSR sort gate)” value does the source give for “QVQLVESGRGLVQAGGSLRLSCAASGFIFNLYAMGWYRQAPGKERELVAAISGGGSTYYAYSVKGRFTISRDNAKNTVYLQMISLKPEDNAVYYCAKKGGHRTYGYDSWGQGTQVTVSS” here?
A: low polyreactivity

Q: With “QVQLVESGRGLVQAGGSLRLSCAASGFIFSNAIGWYRQAPGKERELVAAISRSGGSTYYADSVKGRVTISRDNAKNTVSLQMNSLKPEDTAVEYCAARSYPRSPVRYDYWGQGTQVTVSS” as the sequence, how does the “polyreactivity (PSR sort gate)” value read?
A: high polyreactivity

Q: For “QVQLVESGRGLVQAGGSLRLSCAASGFTFPNYAMGWYRQAPGKERELVASITRRAGSTNYADSVKGRFTISRDNAKNTVYLQMNSLKPEDTAVYYCNTVVLRYLYNYWGQGTQVTVSS”, which “polyreactivity (PSR sort gate)” value is on record?
A: high polyreactivity

Q: For “QVQLVESGRGLVQAGGSLRLSCAASGFTFVYYAMGWYRQAPGKERELVATISGNGGRTYYADSVKGRFTISRDNAKNTVYLQMNSLKPEDTAVYYCAALLYIRSVGYDYWGQGTQVTVSS”, which “polyreactivity (PSR sort gate)” value is on record?
A: low polyreactivity
